Reference: paper PMC9582512 (2022)

Experiments:
[1] = target: IgG4 F127 pre-complexed with dimeric Fel d 1 (human | cat, UniProt P30438 23-92; P30440 18-109); test: BLI; pre-complexed with Fel d 1
[2] = target: IgG1 F127 pre-complexed with dimeric Fel d 1 (human | cat, UniProt P30438 23-92; P30440 18-109); test: BLI; pre-complexed with Fel d 1

B1: human recombinant biotinylated FcγRIIb (CD32b) (receptor)
chain: TPAAPPKAVLKLEPQWINVLQEDSVTLTCRGTHSPESDSIQWFHNGNLIPTHTQPSYRFKANNNDSGEYTCQTGQTSLSDPVHLTVLSEWLVLQTPHLEFQEGETIVLRCHSWKDKPLVKVTFFQNGKSKKFSRSDPNFSIPQANHSHSGDYHCTGNIGYTLYSSKPVTITVQAP
modifications: biotin (biotinylated; site not stated)
koff [1]: 0.000126 s⁻¹ | koff [2]: 0.000279 s⁻¹
